The source of these data is patent publication US10357572B2, “Prodrugs activated by caspase” (priority 2014, dated 2019).

Series [1] concerns the target T1, recombinant human caspase-3 (Homo sapiens, UniProt P42574).
T1 sequence (P42574 29-175 limits assumed): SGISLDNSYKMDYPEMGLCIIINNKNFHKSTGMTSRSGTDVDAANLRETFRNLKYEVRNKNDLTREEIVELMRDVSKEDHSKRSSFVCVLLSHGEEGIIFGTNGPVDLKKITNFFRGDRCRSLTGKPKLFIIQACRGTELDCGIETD
T1 sequence (P42574 176-277 limits assumed): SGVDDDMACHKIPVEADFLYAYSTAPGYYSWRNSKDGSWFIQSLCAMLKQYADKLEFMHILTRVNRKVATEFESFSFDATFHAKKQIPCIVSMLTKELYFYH
Kind of series: HPLC monitored cleavage study by recombinant human caspase-3. Conditions: incubated with purified caspase-3, HPLC. In kind it is biochemical. From the text:
Example 21—HPLC Monitored Cleavage Studies of Human Serum Albumin-Bound Maleimide-KGDEVD-PABC-Doxorubicin (SEQ ID NO: 10) (HSA-KGDEVD-PABC-Doxorubicin (SEQ ID NO: 31)) by Recombinant Human Caspase-3

Series [2] can be described thus: Plasma concentration-time curve of doxorubicin content after intravenous administration to rats. The format is in vivo. Conditions: Sprague-Dawley rats, molar equivalent to 1 mg/kg of doxorubicin. How it is done:
The pharmacokinetic profile of the maleimide-KGDEVD-PABC-doxorubicin (SEQ ID NO: 10) and AcKGDEVD-PABC-doxorubicin (SEQ ID NO: 32) conjugates was determined after intravenous administration to Sprague-Dawley rats at a dose of molar equivalent to 1 mg/kg of doxorubicin (FIG. 25). Blood samples were collected at 5, 15, 30, 60, 90 minutes and then 2, 4, 8, 12, 24, 48, 72, 96, 144 hours post-injection (500 μl each). The collected blood samples were stabilized immediately with sodium citrate and centrifuged for 15 min at 2000×g in a refrigerated centrifuge to separated plasma. The plasma samples (200 μl) were transferred to a 96-well black microplate and the intrinsic fluorescence of doxorubicin was read at Ex 485 nm/Em 590 nm. A standard was prepared in fresh plasma and fluorescence was read as described above.

A short description of series [3]: Plasma concentration-time curves of doxorubicin content after intravenous administration to monkeys. Conditions: Cynomolgus monkeys, molar equivalent to 1 mg/kg of doxorubicin. In kind it is in vivo. Here is the method: The pharmacokinetic profiles of the maleimide-KGDEVD-PABC-doxorubicin (SEQ ID NO: 10) and AcKGDEVD-PABC-doxorubicin (SEQ ID NO: 32) conjugates were determined after intravenous administration to Cynomolgus monkeys at a dose of molar equivalent to 1 mg/kg of doxorubicin (FIG. 28). Blood samples were collected at 15, 30, 45, 60, 90 minutes and then 2, 3, 4, 6, 8, 12, 24, 48, 72, 96, 120, 144, 168 hours post-injection (500 μl each). The collected blood samples were stabilized immediately with sodium citrate and centrifuged for 15 min at 2000×g in a refrigerated centrifuge to separate the plasma. The plasma samples (200 al) were transferred to a 96-well black microplate and the intrinsic fluorescence of doxorubicin was read at Ex 485 nm/Em 590 nm. A standard was prepared in fresh plasma and the fluorescence was read as described above.

Starred links: 1 amine or outer side, 2 acyl side, 3 side chain; linkers in the order of their positions; H or OH if unused. Non-standard residues stand in square brackets, D forms with d. Residues, ends and D or L forms follow the SMILES beside them. *: point of attachment. Doxorubicin(3'-N) = COc1cccc2c1C(=O)c1c(O)c3c(c(O)c1C2=O)C[C@@](O)(C(=O)CO)C[C@@H]3O[C@H]1C[C@H](N*)[C@H](O)[C@H](C)O1; Hexanoyl(6-maleimido) = O=C1C=CC(=O)N1CCCCCC(=O)*; PABC = O=C(OCc1ccc(N[*:1])cc1)[*:2]

With HSA-maleimide-KGDEVD-PABC-doxorubicin, the “time until free doxorubicin was completely liberated from the conjugate” value in series [1] was at most 1 h.
Take `COc1cccc2c1C(=O)c1c(O)c3c(c(O)c1C2=O)C[C@@](O)(C(=O)CO)C[C@@H]3O[C@H]1C[C@H](NC(=O)OCc2ccc(NC(=O)[C@H](CC(=O)O)NC(=O)[C@@H](NC(=O)[C@H](CCC(=O)O)NC(=O)[C@H](CC(=O)O)NC(=O)CNC(=O)[C@H](CCCCNC(=O)CCCCCN3C(=O)C=CC3=O)NC(C)=O)C(C)C)cc2)[C@H](O)[C@H](C)O1` [maleimide-KGDEVD-PABC-doxorubicin, Ac-Lys(EMC)-Gly-Asp-Glu-Val-Asp-PABC-doxorubicin] (Ac-K(Hexanoyl(6-maleimido))GDEVD[PABC]-{Doxorubicin(3'-N)}): the “time the conjugate lasted in plasma after administration” value in series [2] was “more than 6 days”. In addition, the “time the plasma concentration was detectable after administration” value in series [3] was “more than 7 days”.
For orientation: half-life means how long it takes for the measured level to halve. With `COc1cccc2c1C(=O)c1c(O)c3c(c(O)c1C2=O)C[C@@](O)(C(=O)CO)C[C@@H]3O[C@H]1C[C@H](NC(=O)OCc2ccc(NC(=O)[C@H](CC(=O)O)NC(=O)[C@@H](NC(=O)[C@H](CCC(=O)O)NC(=O)[C@H](CC(=O)O)NC(=O)CNC(=O)[C@H](CCCCN)NC(C)=O)C(C)C)cc2)[C@H](O)[C@H](C)O1` [AcKGDEVD-PABC-doxorubicin, Ac-Lys-Gly-Asp-Glu-Val-Asp-PABC-doxorubicin] (Ac-KGDEVD[PABC]-{Doxorubicin(3'-N)}), the “time until plasma concentration decreased below the detection limit (5 ng/ml)” value was at most 4 h in series [2] and at most 6 h in series [3]. The half-life in series [2] (rat, in vivo, plasma fluorescence, read-out: terminal half-life) was found to be 30 min. In addition, the terminal half-life in series [3] (plasma fluorescence) was 60 min.
